This test concerns the target T1, recombinant P. falciparum 3D7 MSP1 (p19 fragment) (Plasmodium falciparum (3D7)).
T1 construct: merozoite surface protein 1 of P. falciparum 3D7, the 19 kDa C-terminal fragment (MSP1-19, p19); Coated on ELISA plates and used in solution in the BLI without avidity; The ELISA methods say only 'recombinant P. falciparum MSP1'; also called MSP1-19; merozoite surface protein 1 (the 1-19 fragment)
T1 chain: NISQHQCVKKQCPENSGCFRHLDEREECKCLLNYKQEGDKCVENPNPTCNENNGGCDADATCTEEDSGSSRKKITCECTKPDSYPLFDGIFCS
The test can be described thus: ELISA; plates coated with recombinant MSP1, AMA1 or OVA (each 5 µg/ml in PBS); purified recombinant antibodies at a maximum of 5-50 nM with 10-fold serial dilutions, 2 h room temperature or overnight 4°C; HRP anti-human IgG1. Conditions: both partners purified.

These results are taken from PMC7938364, “Multimeric antibodies from antigen-specific human IgM^+ memory B cells restrict Plasmodium parasites” (The Journal of Experimental Medicine, 2021).

B1: MaliM03 m-IgG (antibody, V domains shown)
VH: QVQLQQWGAGLLKPSETLSLTCAVYGGSFSGYYWTWIRQPPGKGLEWIGEINNSGKTNYNPSLKSRVSISIDTSKNQFSLKVTSVTAADTAVYYCARGPQQHLEPPFDYWGHGTLVTVSS
VL: QSVLTQPPSASGTPGQRVTISCSGSNSNIATNYVCWYQQYPGTAPKPLIYRTDQRPSGVPDRFSGSKSGTSASLAISGLRSEDEADYYCATWDDSLSAWVFGGGTKLTVL
notes: VH of MaliM03, as the VH of m1; immunoglobulin gamma-1 heavy chain constant region (vector AbVec-hIgG1) with L309C; human IgM tail piece, 18 amino acids, added to the IgG constant region; as the light chain of m1; Self-assembles into multimers (negative-stain EM); also called multimeric IgG; modified IgG antibody; source: 293T cells, transient transfection, purified from supernatant (HiTrap …)
In the case of B1, the “fold better binding than its monomeric form” value was approximately 10 fold.
